In patent US20240317871A1 (IMMUNOMIC THERAPEUTICS, published 2024):
Residue numbers refer to the chain shown, from its start.

T1: Human HEVM recombinant protein (Sino Biological, 10334-H02H) (human, UniProt Q92956 39-202)
T1 construct: construct known only by catalogue number; also called HVEM; human HVEM
T1 sequence (looked up): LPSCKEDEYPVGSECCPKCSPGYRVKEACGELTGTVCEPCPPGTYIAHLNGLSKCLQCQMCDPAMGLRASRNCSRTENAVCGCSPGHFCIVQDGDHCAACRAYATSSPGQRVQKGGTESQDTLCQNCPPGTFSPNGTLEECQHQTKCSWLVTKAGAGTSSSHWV

T2: His-tagged human HVEM (human, UniProt Q92956 39-202, limits assumed)
T2 construct: Analyte of the BLI assay, 200 nM in PBS; not shown: His tag
T2 sequence (looked up): T1 sequence (looked up)

T3: murine HVEM (murine, UniProt Q80WM9 39-206, limits assumed)
T3 construct: also called Mouse
T3 sequence (looked up): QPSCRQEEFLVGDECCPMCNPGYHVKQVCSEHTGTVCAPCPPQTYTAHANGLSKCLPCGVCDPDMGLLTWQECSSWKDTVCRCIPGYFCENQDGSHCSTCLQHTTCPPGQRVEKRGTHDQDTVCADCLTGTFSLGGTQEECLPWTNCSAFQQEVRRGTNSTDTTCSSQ

T4: human HVEM (human, UniProt Q92956 39-202, limits assumed)
T4 sequence (looked up): T1 sequence (looked up)

T5: cynomolgus monkey HVEM (cynomolgus monkey, UniProt A0A2K5W0R1 39-203)
T5 sequence: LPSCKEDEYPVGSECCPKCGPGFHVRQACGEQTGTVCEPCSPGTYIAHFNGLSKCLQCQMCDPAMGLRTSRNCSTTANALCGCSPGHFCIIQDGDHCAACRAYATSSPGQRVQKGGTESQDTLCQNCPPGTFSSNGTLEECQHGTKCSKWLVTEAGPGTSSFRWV

B1: Ab_065 (H5S20-39A29A) (antibody, V domains shown)
VH: EVKLVESGGGLVKPGGSLKLSCAASGFTFSSYAMSWVRQTPETRLEWVASISSGGNTYYPDSVKGRFTISRDNVRNILYLQMSSLRSEDTAMYFCTRGGYGSSHVIWGQGTTLTVSS
VL: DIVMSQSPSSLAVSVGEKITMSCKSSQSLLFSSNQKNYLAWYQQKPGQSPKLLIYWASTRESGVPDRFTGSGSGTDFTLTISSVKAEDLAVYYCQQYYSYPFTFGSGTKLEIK
notes: also called Ab_65
B2: Ab_066 (H5S20-1A1A) (antibody, V domains shown)
VH: B1 VH with N56D, Y58F, P60R, G65A, N73D, N76D, H104F
VL: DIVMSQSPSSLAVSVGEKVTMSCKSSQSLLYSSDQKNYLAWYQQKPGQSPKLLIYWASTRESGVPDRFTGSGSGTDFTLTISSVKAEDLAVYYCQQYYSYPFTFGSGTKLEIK
notes: also called Ab_66
B3: Ab_063 (H5S20-4A4A) (antibody, V domains shown)
VH: B1 VH with V12M, N56S, H104Y
VL: DIVMSQSPSSLAVSVGEKITMSCKSSQSLLFSSIQKNYLAWYQQKPGQSPKLLVYWASTRESGVPDRFTGSGSGTDFTLTISSVKAEDLAVYYCQQYYSYPFTFGSGTKLEIK
notes: also called Ab_159; Ab_63
B4: Ab_064 (H5S20-6A6A) (antibody, V domains shown)
VH: B1 VH with Y32F, T43K, S62N, V74A, R75G, F94Y, T96A, H104Y
VL: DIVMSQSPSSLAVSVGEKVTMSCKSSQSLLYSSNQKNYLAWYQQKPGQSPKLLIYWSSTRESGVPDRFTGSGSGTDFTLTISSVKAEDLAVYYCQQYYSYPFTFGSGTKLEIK
notes: also called Ab_64
B5: Ab_001 (H5S14-1A1A) (antibody, V domains shown)
VH: DVKLVESGGGLVKPGGSLKLSCAASVFTFSRYTMSWVRQTPEKRLEWVATISSGGSYTYYPDSVKGRFTISRDNAKNTLYLQMSSLKSEDTAIYYCTRGGDGLFDYWGQGTALTVSS
VL: DVQITQSPSYLAASPGETITINCRASKSISKYLAWYQEKPGKTNQLLIYSGSTLQSGIPSRFSGSGSGTDFTLTISSLEPEDFAMYYCQQHNEYPWTFGGGTKLEIK
notes: also called Ab_1
B6: Ab_011 (H5S14-12A11A) (antibody, V domains shown)
VH: QVQLQQSGAELVRPGTSVKISCKASGNIFTNSWLGWIKQRPGHGLEWIGDVYPGGGYNKYNEKFKGKATLTIDTSASTAYMQLSRLTSEDSGVYFCAGAMDYWGQGTSVTVSS
VL: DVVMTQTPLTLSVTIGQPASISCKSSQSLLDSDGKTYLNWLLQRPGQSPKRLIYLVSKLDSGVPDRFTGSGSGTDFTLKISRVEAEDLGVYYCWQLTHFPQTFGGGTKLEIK
notes: also called Ab_11
B7: Ab_046 (H5S15-35A31A) (antibody, V domains shown)
VH: B6 VH with N27Y, I28T, I37V, V51I, I72A, A76S, S84G, R85S, G92A
VL: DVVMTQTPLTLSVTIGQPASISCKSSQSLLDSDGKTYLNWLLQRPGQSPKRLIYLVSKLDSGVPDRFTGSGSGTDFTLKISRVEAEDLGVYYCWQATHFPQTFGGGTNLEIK
notes: also called Ab_46
B8: Ab_013 (H5S14-14A11A) (antibody, V domains shown)
VH: B6 VH with N27Y, S32Y, I72V, G92A
VL: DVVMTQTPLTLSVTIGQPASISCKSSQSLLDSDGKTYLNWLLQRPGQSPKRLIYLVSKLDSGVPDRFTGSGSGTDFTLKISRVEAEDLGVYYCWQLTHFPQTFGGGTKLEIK
notes: also called Ab_13
B9: Ab_070 (H5S20-7A7A) (antibody, V domains shown)
VH: B6 VH with N27Y, I28R, V51I, K65R, I72A, A76S, R85S, G92A, Y102S
VL: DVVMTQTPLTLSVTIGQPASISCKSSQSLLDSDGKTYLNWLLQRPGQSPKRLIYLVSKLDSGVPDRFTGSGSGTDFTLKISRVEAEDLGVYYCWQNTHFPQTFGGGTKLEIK
notes: also called Ab_70
B10: Ab_068 (H5S20-24A19A) (antibody, V domains shown)
VH: QVQLQQSGAELVRPGTSVKISCKASGYTFTNYWLGWVKQRPGHGLEWIGDIYPGGGYIIYNEKFKGKATLTVDSSATTAYIQLNSLTSEDSAVYFCAGAMDHWGQGTSVTVSS
VL: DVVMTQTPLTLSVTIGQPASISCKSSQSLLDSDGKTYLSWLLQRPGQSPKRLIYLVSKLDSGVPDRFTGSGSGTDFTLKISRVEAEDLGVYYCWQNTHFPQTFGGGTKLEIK
notes: also called Ab_68
B11: Ab_069 (H5S20-43A19B) (antibody, V domains shown)
VH: B10 VH with K19M, I81M, N84S, H102Y
VL: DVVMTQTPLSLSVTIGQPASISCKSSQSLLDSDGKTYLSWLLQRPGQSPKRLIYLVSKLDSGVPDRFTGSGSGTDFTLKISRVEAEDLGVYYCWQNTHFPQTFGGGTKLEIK
notes: also called Ab_155; Ab_69
B12: Ab_012 (H5S14-13A11A) (antibody, V domains shown)
VH: B6 VH with N27Y, G92A
VL: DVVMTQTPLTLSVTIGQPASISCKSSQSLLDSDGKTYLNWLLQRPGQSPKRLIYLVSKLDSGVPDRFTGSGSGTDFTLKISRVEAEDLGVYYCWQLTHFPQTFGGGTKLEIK
notes: also called Ab_12
B13: Ab_067 (H5S20-7B7B) (antibody, V domains shown)
VH: QVQLQQSGAELIRPGTSVKISCKASGYRFTNSWLGWIKLRPGHGLEWIGDIYPGGGYNKYNEKFRGKATLTADTSSSTAYMQLSSLTSEDSAVYFCAGAMDSWGQGTSVTVSS
VL: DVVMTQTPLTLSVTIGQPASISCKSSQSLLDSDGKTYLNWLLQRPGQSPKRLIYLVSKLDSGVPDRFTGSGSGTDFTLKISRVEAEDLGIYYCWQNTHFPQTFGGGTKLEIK
notes: also called Ab_67
B14: Ab_045 (H5S15-31A12C) (antibody, V domains shown)
VH: B13 VH with I12V, R28A, I37V, L39Q, R65K, M100L, S102Y
VL: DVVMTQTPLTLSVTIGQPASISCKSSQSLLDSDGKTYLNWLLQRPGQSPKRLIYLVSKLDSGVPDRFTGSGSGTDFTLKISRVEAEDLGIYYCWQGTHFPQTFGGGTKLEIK
notes: also called Ab_45
B15: Ab_051 (H5S19-4A6A) (antibody, V domains shown)
VH: QVQLKESGPGLVAPSQSLSITCTVSGFSLTGYGVNWVRQPPGKGLEWLGMIWGDGNTDYNSALKSRLSISKDNSKSQVFLKMNSLQTDDTARYYCARSYGSYWGQGTLVTVSA
VL: QIVLTQSPAIMSASPGEKVTMTCSASSSVSYMYWYQQKPGSSPRLLIYDTSNLASGVPVRFSGSGSGTSYSLTISRMEAEDAATYYCQQWSSYPFTFGSGTKLEIK
notes: also called Ab_51
B16: Ab_030 (H5S15-18A17A) (antibody, V domains shown)
VH: QVQLQQSGAELVRPGTSVKMSCKAAGYTFTNSWIGWVKQRPGHGLEWIGDIYPGGGYTNYYEKFKVKATLTADTSSSTAYMQLSSLTSEDSAIYYCASSGAYWGQGTTLTVSS
VL: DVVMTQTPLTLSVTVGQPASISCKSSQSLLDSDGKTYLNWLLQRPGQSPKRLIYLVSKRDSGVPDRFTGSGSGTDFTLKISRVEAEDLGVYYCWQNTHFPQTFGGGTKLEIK
notes: also called Ab_30
B17: Ab_031 (H5S15-8A17A) (antibody, V domains shown)
VH: B16 VH with N31D, Y61N, V66G, S85R
VL: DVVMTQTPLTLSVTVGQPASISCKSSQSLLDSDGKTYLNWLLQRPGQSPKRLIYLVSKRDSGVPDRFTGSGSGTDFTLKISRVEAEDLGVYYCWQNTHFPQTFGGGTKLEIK
notes: also called Ab_31
B18: Ab_050 (H5S19-9A11A) (antibody, V domains shown)
VH: QVQLKQSGPGLVQPSQSLSITCTVSGFSLTTYGVHWVRQSPGKGLEWLGVIWSGGSTDYNAAFISRLSISKDNSKSQVFFKMNSLQANDTAIYYCARRGYGSPYYYAMDYWGQGTSVTVSS
VL: EIVLTQSPALMAASPGEKVTITCSVSSSISSSNLHWYQQKSETSPKPWIYGTSNLASGVPVRFSGSGSGTSYSLTISSMEAEDAATYYCQQWSSYPLTFGAGTKLELK
notes: also called Ab_50

Target: T1, Human HEVM recombinant protein (Sino …)
Assay: competition ELISA, competitor LIGHT-His
Protocol: (§1) The competitive activity of HVEM antibody to BTLA or LIGHT was evaluated with ELISA-based competitive assay. Briefly Human HEVM recombinant protein (Sino Biological, 10334-H02H, 4 ug/ml, 100 ul/well) was coated to ELISA plate (Thermo Scientific, 469949, 4C overnight). A pre-mixture of HVEM antibody clone with seral dilution and 400 nM BTLA-His (R&D systems, 9235-BT-050) or LIGHT-His (SinoBiological, 10386-H07H) recombinant protein was made and added to the ELISA plate after blocking with 3% BSA (200 ul/well, RT 2 Hr) for 1 Hr at RT. The serial dilutions of HVEM antibody clone involve 7 different concentrations, with a 3-fold dilution performed start from 100 nM for BTLA or 325 nM for LIGHT competitive assay. The concentration was the final concentration. Plate was washed with PBST; diluted HRP-anti-His (Biolegend, 652504, 1:1000) with PBS containing 5% FBS was added 100 ul per well for 1 Hr at RT. TMB substrate (KPL, 52-00-00) 100 ul per well after washing and incubate at room temperature for 15 minutes; then stop the development by adding 100 ul stop solution (KPL, 50-85-06). Plate was read at 450 nm. The IC50 was calculated using GraphPad Prism software (GraphPad Software, Inc. San Diego, CA, USA).

| Binder | IC50 [nM] |
| --- | --- |
| B1 | 8 |
| B2 | 10.4 |
| B3 | 5.7 |
| B4 | 8.7 |
| B5 | 715 |
| B6 | 20.5 |
| B7 | 27.2 |
| B8 | 28.1 |
| B9 | 17.8 |
| B10 | 20.5 |
| B11 | 22.3 |
| B12 | 20.9 |
| B13 | 13.6 |
| B14 | 31 |
| B15 | 18.6 |
| B16 | 21.9 |
| B17 | 22 |
| B18 | 117 |

Target: T2, His-tagged human HVEM
Assay: BLI OctetRed96, mAb captured, 200 nM His-HVEM
In short: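 Murine anti-human HVEM antibodies captured from culture supernatant on anti-mouse IgG Fc biosensors, then associated with 200 nM His-tagged human HVEM in PBS, followed by dissociation in PBS. koff, kon and KD obtained by curve fitting.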

| Binder | Kd [nM] | koff [s⁻¹] | kon [M⁻¹ s⁻¹] |
| --- | --- | --- | --- |
| B1 | 14.9 | 0.0049 | 330000 |
| B2 | 9.59 | 0.00247 | 258000 |
| B3 | 4.09 | 0.00216 | 528000 |
| B4 | 10.7 | 0.00355 | 333000 |
| B5 | 550 | 0.154 | 280000 |
| B6 | 2.78 | 0.00107 | 385000 |
| B7 | 4.59 | 0.00169 | 368000 |
| B8 | 4.39 | 0.00149 | 340000 |
| B9 | 2.33 | 0.00102 | 438000 |
| B10 | 5.99 | 0.00192 | 320000 |
| B11 | 2.97 | 0.000803 | 271000 |
| B12 | 3.22 | 0.00121 | 375000 |
| B13 | 2.65 | 0.00134 | 505000 |
| B14 | 7.32 | 0.00265 | 362000 |
| B15 | 28.8 | 0.0143 | 496000 |
| B16 | 10.3 | 0.00419 | 405000 |
| B17 | 11 | 0.00321 | 291000 |
| B18 | 42.2 | 0.00481 | 114000 |

Target: T1, Human HEVM recombinant protein (Sino …)
Assay: competition ELISA, competitor BTLA-His
Protocol: as §1

| Binder | IC50 [nM] |
| --- | --- |
| B1 | 1.7 |
| B2 | 1.5 |
| B3 | 2.2 |
| B4 | 1.5 |
| B5 | 2.2 |
| B15 | 1.3 |
| B18 | 3 |

Target: T3, murine HVEM
Assay: ELISA

| Binder | ELISA signal |
| --- | --- |
| B1 | 0.044 |
| B2 | 0.044 |
| B3 | 0.043 |
| B4 | 0.044 |
| B5 | 0.057 |
| B6 | 0.049 |
| B7 | 0.042 |
| B8 | 0.048 |
| B9 | 0.062 |
| B10 | 0.044 |
| B11 | 0.054 |
| B12 | 0.044 |
| B13 | 0.047 |
| B14 | 0.042 |
| B15 | 0.043 |
| B16 | 0.046 |
| B17 | 0.042 |
| B18 | 0.047 |

Target: T4, human HVEM
Assay: ELISA

| Binder | ELISA signal |
| --- | --- |
| B1 | 3.24 |
| B2 | 3.28 |
| B3 | 3.1 |
| B4 | 3.07 |
| B5 | 3.3 |
| B6 | 3.16 |
| B7 | 2.94 |
| B8 | 3 |
| B9 | 3.23 |
| B10 | 3.03 |
| B11 | 3.13 |
| B12 | 3.08 |
| B13 | 3.05 |
| B14 | 3.08 |
| B15 | 3.18 |
| B16 | 3.08 |
| B17 | 3.08 |
| B18 | 3.02 |

Target: T5, cynomolgus monkey HVEM
Assay: ELISA

| Binder | ELISA signal |
| --- | --- |
| B1 | 1.52 |
| B2 | 0.883 |
| B3 | 3.13 |
| B4 | 0.987 |
| B5 | 0.072 |
| B6 | 2.97 |
| B7 | 3.03 |
| B8 | 2.74 |
| B9 | 3.1 |
| B10 | 3.04 |
| B11 | 3.04 |
| B12 | 2.89 |
| B13 | 3.04 |
| B14 | 2.9 |
| B15 | 0.563 |
| B16 | 2.98 |
| B17 | 3.06 |
| B18 | 0.094 |
